According to PMC3049928:

Substrate: Nc1ncnc2c1ncn2[C@@H]1O[C@H](COP(=O)(O)O)[C@@H](OP(=O)(O)O)[C@H]1O
Test: purified protein
Format: biochemical, Homo sapiens
Conditions: varied pNPS, no added alcohol, 50 mM phosphate pH 6.2, 37 °C

B1: SULT1A1 (human phenol sulfotransferase, human sulfotransferase 1A1) (Homo sapiens) (protein)
chain: MELIQDTSRPPLEYVKGVPLIKYFAEALGPLQSFQARPDDLLISTYPKSGTTWVSQILDMIYQGGDLEKCHRAPIFMRVPFLEFKAPGIPSGMETLKDTPAPRLLKTHLPLALLPQTLLDQKVKVVYVARNAKDVAVSYYHFYHMAKVHPEPGTWDSFLEKFMVGEVSYGSWYQHVQEWWELSRTHPVLYLFYEDMKENPKREIQKILEFVGRSLPEETVDFVVQHTSFKEMKKNPMTNYTTVPQEFMDHSISPFMRKGMAGDWKTTFTVAQNERFDADYAEKMAGCSLSFRSEL
  Km: 34 ± 6 µM
  kcat: 0.000633 ± 0.000117 s⁻¹
  kcat/Km: 18.3 ± 3.33 M⁻¹ s⁻¹
